Data on seven molecules can be found in doi:10.1101/2024.05.25.595884 (bioRxiv, 2024).

Positions count from the first letter of the chain named.

The target of this test is full-length human HER2 with enhanced green fluorescent protein (eGFP) at the C-terminal end (Homo sapiens, UniProt P04626). The test can be described thus: SPID.

B1: Trastuzumab scFab HCDR3 variant clone H3_72 (Fab, V domains shown)
VH: EVQLVESGGGLVQPGGSLRLSCAASGFNIKDTYIHWVRQAPGKGLEWVARIYPTNGYTRYADSVKGRFTISADTSKNTAYLQMNSLRAEDTAVYYCSRWRGKGFTAMDYWGQGTLVTVSS
VL: not shown
Take B1: the binding result is reported as “binds”.

B2: Trastuzumab scFab HCDR3 variant clone H3_77 (Fab, V domains shown)
VH: B1 VH with G101R, T105Y
VL: not shown
Take B2: the binding result was “binds”.

B3: Trastuzumab scFab HCDR2/HCDR3 cross-combination clone H2/3_03 (Fab, V domains shown)
VH: B1 VH with Y52K, T54A, G101S, K102I, T105Y
VL: not shown
Turning to B3, the Kd (as a rule, the constant that tells how readily two partners part at equilibrium) was under 1 nM and the “fold enhancement in affinity compared to the original Trastuzumab” value was determined as 6 fold.

B4: Trastuzumab scFab HCDR3 variant clone H3_85 (Fab, V domains shown)
VH: B1 VH with R100G, G101R, K102H, T105N
VL: not shown
In the case of B4, the binding result is reported as “binds”.

B5: Trastuzumab scFab HCDR2 variant IRPVRG (Fab, V domains shown)
VH: B1 VH with Y52R, T54V, N55R, R100G, K102D, T105Y
VL: not shown
As to B5, the Kd was found to be 2.6 nM.

B6: Trastuzumab scFab HCDR3 variant clone H3_29 (Fab, V domains shown)
VH: B1 VH with G101S, K102I, T105Y
VL: not shown
For the molecule B6, the binding result was “binds”.

B7: Trastuzumab scFab HCDR2/HCDR3 cross-combination clone H2/3_07 (Fab, V domains shown)
VH: B1 VH with Y52R, T54V, N55R, G101S, K102I, T105Y
VL: not shown
On to B7, for which the Kd was under 1 nM and the “fold enhancement in affinity compared to the original Trastuzumab” value is 6 fold.
